Data published in patent US20250230234A1 (Sanofi, published 2025).
“And” between values parts separate entries of the source, which are not always exact repeats. Identical values can stand only once.

How the values were obtained:
[1] = molecular target: T1, human FcγRIIIa V158 expressed on HEK293 T cells (human, UniProt P08637 17-254); test: flow cytometry on HEK293 T cells expressing human FcγRIIIa V158, against BM2 IgG1 wt
T1 construct: whole, on cells; Cell-surface form, kept apart from the soluble His-captured receptor m11; also called HEK293 T human FcγRIIIa V158; hu FcγRIIIa
T1 sequence (P08637 17-254 F176V): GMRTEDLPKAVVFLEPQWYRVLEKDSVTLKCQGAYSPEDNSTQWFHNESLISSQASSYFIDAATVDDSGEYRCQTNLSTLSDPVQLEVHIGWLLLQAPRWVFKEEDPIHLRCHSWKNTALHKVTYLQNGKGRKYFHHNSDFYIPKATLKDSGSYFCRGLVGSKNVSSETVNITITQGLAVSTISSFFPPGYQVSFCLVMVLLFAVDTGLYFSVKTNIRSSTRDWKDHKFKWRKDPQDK
Method: (§1) The antibodies were tested using FACS for their ability to bind cells that express human or cynomolgus FcγRIIIa on their surface. The cell lines used were recombinant stable HEK293 T cells expressing human FcγRIIIa V158 and cynomolgus FcγRIIIa to assess cynomolgus cross-reactivity.
(§2) For dose-response curves, cells were incubated with a serial dilution of the antibodies (from 0.0001 μg/mL to 100 μg/mL) for 1 h at 4° C.
(§3) Analyses were performed with VenturiOne® Software. Cells were first gated in FSC/SSC. From the resulting cell population, single cells and following viable cells were gated. Binding was analyzed as median fluorescence intensity (MFI) of the secondary antibody.

[2] = molecular target: T2, human GPRC5D (full length, on cells) (human, UniProt Q9NZD1 1-345); test: cell-based or functional assay
T2 sequence (Q9NZD1 whole entry): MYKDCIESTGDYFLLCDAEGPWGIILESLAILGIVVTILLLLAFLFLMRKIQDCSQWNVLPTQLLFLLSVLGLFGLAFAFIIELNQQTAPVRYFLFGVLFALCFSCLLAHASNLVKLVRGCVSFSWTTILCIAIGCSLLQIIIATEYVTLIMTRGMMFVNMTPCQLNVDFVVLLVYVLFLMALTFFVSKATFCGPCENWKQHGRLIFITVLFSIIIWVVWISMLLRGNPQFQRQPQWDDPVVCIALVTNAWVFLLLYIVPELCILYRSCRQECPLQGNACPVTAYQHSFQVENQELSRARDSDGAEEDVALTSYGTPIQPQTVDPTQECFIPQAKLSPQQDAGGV

[3] = molecular target: T2, human GPRC5D (full length, on cells); test: flow cytometry on MM.1R cells, apparent KD, N = 1
Method: (§4) FACS analyses were performed to determine the ability of the ADCC-enhanced antibodies to bind to cells that express GPRC5D on their surface.
(§5) Analyses were performed with Forecyt® Software. Cells were first gated in FSC (forward scatter)/SSC (side scatter). From the resulting cell population, single live cells were gated. Binding was analyzed as median fluorescence intensity (MFI) of the secondary antibody. Curves and apparent KD (“AppKD”) calculations were generated using GraphPad Prism Software (FIG. 2).

[4] = molecular target: T2, human GPRC5D (full length, on cells); test: flow cytometry on MM.1R cells, apparent KD, N = 3
Method: as §4, §5

[5] = molecular target: T3, huFcRn (human, UniProt P55899 24-297; P61769 21-119); test: SPR Biacore T200, huFcRn on biotin CAPture, pH 5.9, mean of two; pH 5.9
T3 construct: also called human FcRn
T3 sequence (P55899 24-297 limits assumed, chain 1 of 2): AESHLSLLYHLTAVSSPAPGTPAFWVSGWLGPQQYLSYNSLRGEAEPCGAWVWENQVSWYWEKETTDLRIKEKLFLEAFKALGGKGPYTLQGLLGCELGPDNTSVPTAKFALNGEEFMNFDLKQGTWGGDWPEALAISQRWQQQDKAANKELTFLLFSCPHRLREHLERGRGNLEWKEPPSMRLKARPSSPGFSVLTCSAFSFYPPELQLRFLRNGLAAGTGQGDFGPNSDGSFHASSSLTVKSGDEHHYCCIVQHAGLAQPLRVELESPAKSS
T3 sequence (P61769 21-119 limits assumed, chain 2 of 2): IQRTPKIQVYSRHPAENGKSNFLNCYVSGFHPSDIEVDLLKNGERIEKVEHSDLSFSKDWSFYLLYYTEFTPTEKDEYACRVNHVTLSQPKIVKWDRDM
Method: (§6) The interaction of the antibodies with human Fc receptors was analysed by SPR using a Biacore™ T200 instrument in the following test conditions: [0242] Immobilization of anti-His antibodies on a CM5 sensor chip via amine coupling for seven Fcγ receptors: huFcγRI, huFcγRIIa_H131, huFcγRIIa_R131, huFcγRIIb/c, huFcγRIIIa_V158, huFcγRIIIa_F158, huFcγRIIIb, or use of biotin CAPture for the huFcRn analysis [0243] Capture of each of the Fc receptors [0244] Affinity constant determination by single cycle kinetics (SCK) at concentrations ranging from 0.6 nM to 2000 nM [0245] Interaction with huFcRn was studied at pH5.9 and pH7.4

[6] = molecular target: T2, human GPRC5D (full length, on cells); test: cell-based or functional assay; remark: listed apart in the source
[7] = molecular target: T4, cynomolgus FcγRIIIa expressed on HEK293 T cells (cynomolgus, UniProt Q8SPW2 17-254); test: flow cytometry on HEK293 T cells expressing cyno FcγRIIIa, against BM2 IgG1 wt
T4 construct: whole, on cells; also called cyno FcγRIIIa; cy FcγRIIIa
T4 sequence (Q8SPW2 17-254): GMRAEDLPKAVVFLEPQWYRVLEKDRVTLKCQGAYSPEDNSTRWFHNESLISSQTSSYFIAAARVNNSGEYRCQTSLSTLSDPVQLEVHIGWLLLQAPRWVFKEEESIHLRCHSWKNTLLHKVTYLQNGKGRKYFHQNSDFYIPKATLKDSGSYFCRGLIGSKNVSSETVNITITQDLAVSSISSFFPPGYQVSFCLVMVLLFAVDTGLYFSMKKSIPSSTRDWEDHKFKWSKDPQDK
Method: as §1, §2, §3

[8] = molecular target: T2, human GPRC5D (full length, on cells); test: cell-based or functional assay; remark: listed apart in the source
[9] = molecular target: T1, human FcγRIIIa V158 expressed on HEK293 …; test: flow cytometry on HEK293 T cells expressing human FcγRIIIa V158, apparent KD, mean of three
Method: as §1, §2
(§7) The apparent KD was determined for each molecule by drawing an appropriate non-linear regression curve using the one site-specific binding four parameters model with GraphPad Prism Software (FIG. 1).

[10] = molecular target: T4, cynomolgus FcγRIIIa expressed on HEK293 …; test: flow cytometry on HEK293 T cells expressing cyno FcγRIIIa, apparent KD, mean of three
Method: as §1, §2, §7

[11] = molecular target: T2, human GPRC5D (full length, on cells); test: FACS on MM.1R cells (GPRC5D-positive), serial antibody dilution, goat anti-human IgG A488 secondary antibody, median fluorescence intensity
Method: as §4, §5

[12] = molecular target: T5, huFcγRIIa_R167 (human, UniProt P12318 36-218, limits assumed); test: SPR Biacore T200, receptor captured by anti-His, single cycle kinetics
T5 construct: also called huFcγRIIA R167 polymorph
T5 sequence (looked up): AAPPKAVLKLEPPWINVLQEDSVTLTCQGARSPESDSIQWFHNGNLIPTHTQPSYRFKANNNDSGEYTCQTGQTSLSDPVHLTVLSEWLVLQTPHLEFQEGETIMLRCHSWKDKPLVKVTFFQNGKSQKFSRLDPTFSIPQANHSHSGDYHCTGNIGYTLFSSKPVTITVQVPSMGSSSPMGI

[13] = molecular target: T2, human GPRC5D (full length, on cells); test: cell-based or functional assay; remark: listed apart in the source
[14] = molecular target: T6, huFcγRIIIb (human, UniProt O75015 17-200); test: SPR Biacore T200, receptor captured by anti-His, single cycle kinetics, mean of two
T6 construct: also called human FcγRIIIb
T6 sequence (O75015 17-200 limits assumed): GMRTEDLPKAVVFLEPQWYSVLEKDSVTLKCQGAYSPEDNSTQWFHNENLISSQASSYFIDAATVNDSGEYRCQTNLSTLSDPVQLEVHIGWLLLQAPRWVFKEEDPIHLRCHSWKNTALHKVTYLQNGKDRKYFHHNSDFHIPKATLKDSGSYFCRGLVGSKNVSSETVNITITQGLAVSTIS
Method: as §6

[15] = molecular target: T7, huFcγRI (human, UniProt P12314 16-288); test: as above
T7 construct: also called human FcγRI
T7 sequence (P12314 16-288 limits assumed): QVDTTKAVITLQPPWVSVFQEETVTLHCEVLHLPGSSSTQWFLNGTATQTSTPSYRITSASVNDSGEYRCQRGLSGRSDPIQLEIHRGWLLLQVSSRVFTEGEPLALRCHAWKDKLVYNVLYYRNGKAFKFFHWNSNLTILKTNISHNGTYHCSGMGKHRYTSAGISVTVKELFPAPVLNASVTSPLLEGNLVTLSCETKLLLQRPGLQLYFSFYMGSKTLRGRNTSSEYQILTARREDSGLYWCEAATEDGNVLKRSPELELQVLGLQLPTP
Method: as §6

[16] = molecular target: T8, huFcγRIIa_H167 (human, UniProt P12318 36-218, limits assumed); test: as above
T8 construct: also called huFcγRIIA H167 polymorph
T8 sequence (looked up): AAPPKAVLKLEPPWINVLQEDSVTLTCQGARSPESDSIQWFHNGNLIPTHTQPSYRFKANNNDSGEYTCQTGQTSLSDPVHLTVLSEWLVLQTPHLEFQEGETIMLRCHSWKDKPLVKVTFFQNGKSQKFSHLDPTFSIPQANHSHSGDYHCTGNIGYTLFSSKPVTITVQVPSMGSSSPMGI
Method: as §6

[17] = molecular target: T9, huFcγRIIIa_F158 (human, UniProt P08637 17-208); test: as above
T9 construct: Recombinant receptor captured on the SPR chip through anti-His antibodies; also called human FcγRIIIa F158 polymorph; CD16a
T9 sequence (P08637 17-208 limits assumed): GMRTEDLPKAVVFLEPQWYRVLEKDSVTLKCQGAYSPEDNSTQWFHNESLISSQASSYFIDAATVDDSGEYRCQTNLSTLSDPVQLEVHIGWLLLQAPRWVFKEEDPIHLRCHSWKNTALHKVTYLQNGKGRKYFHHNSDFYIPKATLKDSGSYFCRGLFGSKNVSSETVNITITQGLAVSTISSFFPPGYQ
Method: as §6

[18] = molecular target: T5, huFcγRIIa_R167; test: as above
Method: as §6

[19] = molecular target: T10, huFcγRIIIa_V158 (human, UniProt P08637 17-208); test: as above
T10 construct: Recombinant receptor captured on the SPR chip through anti-His antibodies; V at position 158 (mature numbering, as the name says); also called human FcγRIIIa V158 polymorph; CD16a
T10 sequence (P08637 17-208 F176V limits assumed): as the sequence (P08637 17-208 limits assumed) above, with F160V counted along it
Method: as §6

[20] = molecular target: T2, human GPRC5D (full length, on cells); test: flow cytometry on MM.1R cells, apparent KD, mean
Method: as §4, §5

[21] = molecular target: T2, human GPRC5D (full length, on cells); test: cell-based or functional assay; remark: listed apart in the source
[22] = molecular target: T3, huFcRn; test: SPR Biacore T200, huFcRn on biotin CAPture, pH 5.9, mean of two; pH 5.9; fold change vs BM1 IgG1 wt
[23] = molecular target: T2, human GPRC5D (full length, on cells); test: flow cytometry on MM.1R cells, apparent KD, N = 2
Method: as §4, §5

B1: clone 11 in DE-DSB format (anti-GPRC5D IgG1 with S239D/I332E/R292C/V302C Fc mutations) (antibody)
heavy: EVQLVESGGGLVQPGGSLRLSCAASGFTVSSNYMSWVRQAPGKGLEWVSVIYSGGSTYYADSVKGRFTISRDNSKNTLYLQMNSLRAEDTAVYYCARGFLAFGRYYYGMDVWGQGTTVTVSSASTKGPSVFPLAPSSKSTSGGTAALGCLVKDYFPEPVTVSWNSGALTSGVHTFPAVLQSSGLYSLSSVVTVPSSSLGTQTYICNVNHKPSNTKVDKKVEPKSCDKTHTCPPCPAPELLGGPDVFLFPPKPKDTLMISRTPEVTCVVVDVSHEDPEVKFNWYVDGVEVHNAKTKPCEEQYNSTYRCVSVLTVLHQDWLNGKEYKCKVSNKALPAPEEKTISKAKGQPREPQVYTLPPSRDELTKNQVSLTCLVKGFYPSDIAVEWESNGQPENNYKTTPPVLDSDGSFFLYSKLTVDKSRWQQGNVFSCSVMHEALHNHYTQKSLSLSPG
light: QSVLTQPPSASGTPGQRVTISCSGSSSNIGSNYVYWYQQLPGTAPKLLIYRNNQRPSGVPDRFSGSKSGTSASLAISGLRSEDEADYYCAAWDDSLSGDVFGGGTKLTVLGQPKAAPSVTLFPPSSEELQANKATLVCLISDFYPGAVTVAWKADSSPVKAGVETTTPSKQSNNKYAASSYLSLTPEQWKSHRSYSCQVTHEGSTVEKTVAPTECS
notes: human IgG1, lambda light chain; also called 11-DE-DSB; 11 DE-DSB
Fold change vs IgG1 wt [1]: 28 fold | EC50rel geometric mean, ADCP by macrophages against MM.1R cells (n = 5) [2]: 0.0359 µg/mL | Kd [3]: 0.036 nM | Kd [4]: 0.019 nM | Kd [5]: 982 nM | relEC50 Median, ADCC (calcein release) against EJM cells with NK cells [6]: 259 pM and 37.5 ng/ml | Fold change vs IgG1 wt [7]: 26 fold | EC50 geometric mean, ADCP by macrophages against MM.1R cells (n = 5) [8]: 0.248 nM | EC50rel, ADCP by macrophages against MM.1R cells, Donor1 [8]: 0.297 nM | EC50rel, ADCP by macrophages against MM.1R cells, Donor3 [8]: 0.303 nM | EC50rel, ADCP by macrophages against MM.1R cells, Donor4 [8]: 0.517 nM | EC50rel, ADCP by macrophages against MM.1R cells, Donor5 [8]: 0.0528 nM | Kd [9]: 1.22 nM | Kd [10]: 1.4 nM | EC50 (read off the curve) [11]: ~0.02 nM | binding result [12]: no binding (tested: 0.6 nM to 2000 nM) | relEC50 Median, ADCC (calcein release) against MM.1R cells with NK cells [13]: 6 ng/ml and 40.1 pM | Fold change vs BM1 IgG1 wt [14]: 34 fold | Kd [14]: 52.9 nM | Fold change vs BM1 IgG1 wt [15]: 2 fold | Kd [15]: 0.499 nM | Fold change vs BM1 IgG1 wt [16]: 1 fold | Kd [16]: 2580 nM | NormB [16]: 15 | Fold change vs BM1 IgG1 wt [17]: 10 fold | Kd [17]: 22.7 nM | NormB [17]: 45 | NormB [18]: 2 | Fold change vs BM1 IgG1 wt [19]: 4 fold | Kd [19]: 12.2 nM | NormB [19]: 38 | Kd [20]: 0.024 nM | relEC50 median, ADCC over four days (Incucyte) against MM.1R cells with NK cells [21]: 0.87 ng/ml and 6 pM | Fold change vs BM1 IgG1 wt [22]: 1 fold | Kd [23]: 0.018 nM
